Test results: patent US20170174733A1 (Genentech, published 2017)
Numbering of substitutions follows the chain as printed. Names may count otherwise.

What was measured:
VEGF109 [1] = target: T1, VEGF109 (UniProt P15692 214-315, biotinylated where loaded on streptavidin tips); assay: phage ELISA, 5 ug/ml VEGF coated on 384-well Maxisorp, OD 450 nm
T1 construct: range 8-109; also called VEGF8-109; biotinylated VEGF109
T1 sequence: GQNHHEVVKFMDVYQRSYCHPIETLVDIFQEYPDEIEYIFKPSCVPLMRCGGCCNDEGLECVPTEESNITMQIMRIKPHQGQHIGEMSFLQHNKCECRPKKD

papain = target: T2, papain (UniProt P00784 134-345); assay: phage ELISA on coated papain, 2-fold phage dilutions, anti-M13-HRP detection, OD 450 nm
T2 construct: Coated on ELISA plates
T2 sequence: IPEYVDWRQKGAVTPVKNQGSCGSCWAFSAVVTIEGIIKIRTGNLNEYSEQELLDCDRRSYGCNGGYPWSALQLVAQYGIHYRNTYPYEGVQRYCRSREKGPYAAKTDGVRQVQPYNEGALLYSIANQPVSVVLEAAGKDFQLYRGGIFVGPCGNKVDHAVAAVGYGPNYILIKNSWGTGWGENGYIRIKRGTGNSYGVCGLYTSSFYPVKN

BSA = BSA (UniProt P02769 25-607); assay: phage ELISA on BSA as control, 2-fold phage dilutions, anti-M13-HRP detection, OD 450 nm
Chain of BSA (P02769 25-607 limits assumed): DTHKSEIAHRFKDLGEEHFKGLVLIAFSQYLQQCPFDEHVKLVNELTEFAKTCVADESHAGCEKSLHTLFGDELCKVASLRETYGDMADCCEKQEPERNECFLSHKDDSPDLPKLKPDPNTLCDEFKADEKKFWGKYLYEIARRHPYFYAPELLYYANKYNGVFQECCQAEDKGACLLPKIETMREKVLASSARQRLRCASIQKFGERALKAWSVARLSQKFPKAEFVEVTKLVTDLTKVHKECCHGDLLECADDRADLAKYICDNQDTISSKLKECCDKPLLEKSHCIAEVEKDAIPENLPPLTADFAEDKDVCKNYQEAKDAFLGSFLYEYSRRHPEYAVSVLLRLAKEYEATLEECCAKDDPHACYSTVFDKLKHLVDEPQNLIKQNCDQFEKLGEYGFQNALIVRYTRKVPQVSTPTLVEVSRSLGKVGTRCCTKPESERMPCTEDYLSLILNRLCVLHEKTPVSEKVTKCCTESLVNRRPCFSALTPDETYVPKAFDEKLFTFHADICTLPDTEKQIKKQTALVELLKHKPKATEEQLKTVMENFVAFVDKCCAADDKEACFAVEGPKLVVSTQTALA

[2] = target: anti-gD antibody (Genentech, Inc.); assay: phage ELISA on coated anti-gD antibody, 2-fold phage dilutions, anti-M13-HRP detection, OD 450 nm
LRP6 on HEK293S cells = LRP6 on HEK293S cells (human, UniProt O75581 20-1613); assay: cell-based or functional assay
[3] = target: T3, LRP6 E1E2 with a C-terminal Avi-tag and His6-tag (human, UniProt O75581 20-630, biotinylated (Avi-tag) where loaded on streptavidin tips; unlabeled where in solution); assay: BLI (OctetRED384), monomeric variant
T3 construct: domain: E1E2; also called LRP6 receptor fragment E1E2; biotinylated LRP6-E1E2; not shown: C-terminal Avi-tag and His6-tag
T3 sequence: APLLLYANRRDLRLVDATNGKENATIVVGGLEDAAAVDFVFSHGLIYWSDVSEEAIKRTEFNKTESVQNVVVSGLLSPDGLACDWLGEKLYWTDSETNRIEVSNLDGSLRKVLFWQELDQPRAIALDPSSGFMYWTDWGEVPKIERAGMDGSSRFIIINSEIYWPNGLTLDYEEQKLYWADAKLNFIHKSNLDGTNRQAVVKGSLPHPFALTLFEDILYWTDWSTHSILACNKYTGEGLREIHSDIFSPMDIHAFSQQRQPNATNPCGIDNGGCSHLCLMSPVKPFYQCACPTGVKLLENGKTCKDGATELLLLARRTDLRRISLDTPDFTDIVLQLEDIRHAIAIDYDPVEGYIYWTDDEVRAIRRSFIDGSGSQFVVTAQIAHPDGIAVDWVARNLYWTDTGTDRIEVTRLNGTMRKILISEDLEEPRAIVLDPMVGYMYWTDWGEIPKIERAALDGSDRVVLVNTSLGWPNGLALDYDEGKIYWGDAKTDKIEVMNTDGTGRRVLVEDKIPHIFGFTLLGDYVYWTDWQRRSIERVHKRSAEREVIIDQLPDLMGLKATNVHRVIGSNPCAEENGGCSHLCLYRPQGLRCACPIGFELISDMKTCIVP

VEGF109 [4] = target: T1, VEGF109; assay: BLI (Octet) on VEGF109
Experimental: Binding affinities of chagasin variants for the targets LRP6 and VEGF109 were measured using the OctetRED384 (ForteBio). All washes, dilutions and measurements were performed in PBS-based kinetics buffer (ForteBio) with the plate shaking at 1000 rpm. Streptavidin biosensors (SA tips, ForteBio) were equilibrated in kinetics buffer for 5 min and then loaded with either biotinylated LRP6-E1E2 or biotinylated VEGF109 (20 μg/ml) to a density of 2 nm signal difference, followed by a 3 min washing step. […] Dissociation of the chagasin variant-target complex was measured in wells containing kinetics buffer alone for up to 30 min. Sensorgrams with ligand-loaded SA tips going through wells containing only buffer in both association and dissociation measurement were used as reference for background subtraction. Kd, kₐ and kd were determined using the Octet evaluation software v7.0.1.3. using a 1:1 binding model with global fitting. Alternatively, AMC-biosensors (Fortebio) were loaded with StrepMAB-Immo (IBA GmbH) to saturation and subsequently used to capture Strep-tag II containing chagasin variants to saturation. After 5 min of washing in kinetics buffer, binding kinetics to unlabeled LRP6-E1E2 fragment was determined essentially as described above.

[5] = target: T3, LRP6 E1E2 with a C-terminal Avi-tag and …; assay: BLI (OctetRED384): Strep-tagged variant captured by StrepMAB-Immo on AMC tips, LRP6-E1E2 in solution
human VEGF [6] = target: T4, human VEGF (human, UniProt P15692 27-191); assay: cell-based or functional assay
T4 sequence (P15692 other isoform, or with tags, fused parts or gaps limits assumed): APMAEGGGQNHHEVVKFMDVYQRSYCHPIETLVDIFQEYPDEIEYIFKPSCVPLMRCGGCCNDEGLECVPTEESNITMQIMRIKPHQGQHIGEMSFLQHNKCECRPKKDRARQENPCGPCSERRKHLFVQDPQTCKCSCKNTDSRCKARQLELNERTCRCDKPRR

VEGF109 [7] = target: T1, VEGF109; assay: phage spot ELISA on VEGF with the phage-displayed clone 37, as told by the legend and paragraph 367; the sheet draws sequences only, no signals
human VEGF [8] = target: T4, human VEGF; assay: cell-based or functional assay; remark: listed apart in the source

B1: phage-displayed chagasin VEGF variant 2-40-D4 (designed binder)
chain: MADPNRFRGKDLGSLEMSHKVTKAHNGATLTVAVGELVEIQLPSNLQNAGFAWYFEGGTKESPNESMFTVENKYFPLSLYASETGAGGTEHFHVTVKAAGTHAVNLTYMNPNWGPDYWIERFTVYLKANGGSGGSGGS
notes: not shown: phage coat protein g3 (p3)
VEGF109 [1]
  EC50 (read off the curve): ~0.003 OD 268 nM

B2: phage-displayed gD-tagged wild-type chagasin fused to phage coat protein p3 (other)
chain: MADPNRFRGKDLGSLEMSHKVTKAHNGATLTVAVGELVEIQLPSNPTTGFAWYFEGGTKESPNESMFTVENKYFPPDSKLLGAGGTEHFHVTVKAAGTHAVNLTYMRPWTGPSHDSERFTVYLKANGGSGGSGGS
notes: also called chagasin wild-type (wt); p3-fusion display; not shown: phage coat protein g3 (p3)
papain
  EC50 (read off the curve): ~0.04 OD 268 nM
BSA
  binding result: no binding (tested: 0.5 OD 268 nm)
[2]
  EC50 (read off the curve): ~0.01 OD 268 nM

B3: phage-displayed gD-tagged wild-type chagasin fused to phage coat protein p8 (other)
chain: B2 chain
notes: also called chagasin wild-type (wt); p8-fusion display; not shown: phage coat protein g8 (p8)
papain
  EC50 (read off the curve): ~0.04 OD 268 nM
BSA
  binding result: no binding (tested: 0.5 OD 268 nm)
[2]
  EC50 (read off the curve): ~0.02 OD 268 nM

B4: chagasin LRP6 variant H15 (designed binder)
chain: MSHKVTKAHNGATLTVAVGELVEIQLPSNPTTGFAWYFEGGTKESPNESMFTVENKYFPSNKIKGIPGFGAGGTEHFHVTVKAAGTHAVNLTYMRPSTGPSDDSERFTVYLKAN
notes: also called clone H15
LRP6 on HEK293S cells
  IC50, inhibition of Wnt1 signaling (luciferase reporter, HEK293S cells transfected by WNT1): 26 nM
[3]
  Kd: 0.25 nM

B5: chagasin VEGF binder Variant 66-L2-K (designed binder)
chain: MSHKVTKAHNGATLTVAVGELVEIQLPSNYYKDGFAWYFEGGTKESPNESMFTVENKYFPHYYNLGGRYTGAGGTEHFHVTVKAAGTHAVNLTYMGPWLGPSRVLERFTVYLKAN
VEGF109 [4]
  Kd: 61 nM

B6: chagasin VEGF binder Variant 66-L4-S (designed binder)
chain: B5 chain with K32Y, Y63S, A72G, G73A
VEGF109 [4]
  Kd: 50 nM

B7: chagasin VEGF binder Variant 66-L4-T (designed binder)
chain: B5 chain with K32Y, Y63T, A72G, G73A
VEGF109 [4]
  Kd: 51 nM

B8: chagasin VEGF binder Variant 66-L4-Q (designed binder)
chain: B5 chain with K32Y, Y63Q
VEGF109 [4]
  Kd: 80 nM

B9: chagasin LRP6 variant S (designed binder)
chain: MSHKVTKAHNGATLTVAVGELVEIQLPSNPADGFAWYFEGGTKESPNESMFTVENKYFPSNYTKHGAGGTEHFHVTVKAAGTHAVNLTYMPREKGSSLVMERFTVYLKANSAWSHPQFEK
[5]
  Kd: 70 nM

B10: phage-displayed chagasin VEGF variant 1-90-H6 (designed binder)
chain: MADPNRFRGKDLGSLEMSHKVTKAHNGATLTVAVGELVEIQLPSNLQDSGFAWYFEGGTKESPNESMFTVENKYFPSGTTGKSNGAGGTEHFHVTVKAAGTHAVNLTYMFKSRGLMVPLERFTVYLKANGGSGGSGGS
notes: as for B1
VEGF109 [1]
  EC50 (read off the curve): ~0.006 OD 268 nM

B11: chagasin LRP6 variant S11 (designed binder)
chain: MSHKVTKAHNGATLTVAVGELVEIQLPSNVDGFAWYFEGGTKESPNESMFTVENKYFPSNSTKRGAGGTEHFHVTVKAAGTHAVNLTYMPRVKGAYLVMERFTVYLKAN
notes: also called clone S11
LRP6 on HEK293S cells
  IC50, inhibition of Wnt1 signaling (luciferase reporter, HEK293S cells transfected by WNT1): 400 nM
[3]
  Kd: 74 nM

B12: phage-displayed chagasin VEGF variant 5-44-D8 (designed binder)
chain: MADPNRFRGKDLGSLEMSHKVTKAHNGATLTVAVGELVEIQLPSNLRSMGFAWYFEGGTKESPNESMFTVENKYFPAGPSAVPLGAGGTEHFHVTVKAAGTHAVNLTYMAPWRGPANVIERFTVYLKANGGSGGSGGS
notes: as for B1
VEGF109 [1]
  EC50 (read off the curve): ~0.003 OD 268 nM

B13: phage-displayed chagasin VEGF variant 3-65-F5 (designed binder)
chain: MADPNRFRGKDLGSLEMSHKVTKAHNGATLTVAVGELVEIQLPSNYRDSGFAWYFEGGTKESPNESMFTVENKYFPVRAGQANEGAGGTEHFHVTVKAAGTHAVNLTYMSPVLGPRFWLERFTVYLKANGGSGGSGGS
notes: as for B1
VEGF109 [1]
  EC50 (read off the curve): ~0.004 OD 268 nM

B14: chagasin VEGF variant E4B-5 (designed binder)
chain: MSHKVTKAHNGATLTVAVGELVEIQLPSNYFYEGFAWYFEGGTKESPNESMFTVENKYFPNGPGLGVYGAGGTEHFHVTVKAAGTHAVNLTYMAPWQGPSRELERFTVYLKAN
Human VEGF [6]
  Inhibitory Activity (IC50, nM) against hVEGF in cell-based assays: 800 nM

B15: dimeric chagasin VEGF variant 37 (designed binder)
chain: B14 chain with Y32C, E33D, G62Y, L65S, Y68L, Q97F, E102V
notes: also called clone 37
VEGF109 [7]
  binding result: binds

B16: chagasin VEGF variant L4X8-9 (designed binder)
chain: B14 chain with E33D, N61S, P63S, G64Y, L65M, G66S, V67Y, Y68S, Q97L, E102D
Human VEGF [8]
  IC50, inhibition of VEGF-dependent signaling through the KDR receptor on cells: 301 nM
  fold improvement of IC50 over the parental chagasin variant 4: 2 fold
Human VEGF [6]
  Inhibitory Activity (IC50, nM) against hVEGF in cell-based assays: 300 nM

B17: chagasin VEGF variant E4B-7 (designed binder)
chain: B14 chain with F31Y, E33D, G62V, P63N, L65S, G66H, V67A, Y68W, Q97S, E102F
Human VEGF [6]
  Inhibitory Activity (IC50, nM) against hVEGF in cell-based assays: 550 nM

B18: chagasin VEGF variant E4B-10 (designed binder)
chain: B14 chain with E33D, N61D, G62D, L65S, V67L, Y68W, Q97S, E102Y
Human VEGF [6]
  Inhibitory Activity (IC50, nM) against hVEGF in cell-based assays: 610 nM

B19: chagasin LRP6 variant P (designed binder)
chain: MSHKVTKAHNGATLTVAVGELVEIQLPSNPSCGFAWYFEGGTKESPNESMFTVENKYFPDSNEIWYCGAGGTEHFHVTVKAAGTHAVNLTYMSPYYGPTKVEERFTVYLKANSAWSHPQFEK
[5]
  Kd: 150 nM

B20: phage-displayed chagasin VEGF variant 4-66-F6 (designed binder)
chain: MADPNRFRGKDLGSLEMSHKVTKAHNGATLTVAVGELVEIQLPSNYFYDGFAWYFEGGTKESPNESMFTVENKYFPNDPGSRLSGAGGTEHFHVTVKAAGTHAVNLTYMAPWLGPSRVLERFTVYLKANGGSGGSGGS
notes: as for B1
VEGF109 [1]
  EC50 (read off the curve): ~0.007 OD 268 nM

B21: chagasin LRP6 variant H (designed binder)
chain: MSHKVTKAHNGATLTVAVGELVEIQLPSNPTTGFAWYFEGGTKESPNESMFTVENKYFPYNNIRGLPGFGAGGTEHFHVTVKAAGTHAVNLTYMRPWTGPSHDSERFTVYLKANSAWSHPQFEK
[5]
  Kd: 6 nM

B22: chagasin VEGF variant L4X6-3 (designed binder)
chain: MSHKVTKAHNGATLTVAVGELVEIQLPSNYFNDGFAWYFEGGTKESPNESMFTVENKYFPGSSYWGGAGGTEHFHVTVKAAGTHAVNLTYMAPWAGPSRVLERFTVYLKAN
Human VEGF [6]
  Inhibitory Activity (IC50, nM) against hVEGF in cell-based assays: 710 nM
